Assay results as given in patent publication US20230348614A1 (VISTERRA, published 2023).
Changes are numbered by the printed parent chain.

Columns and labels:
G184A = target: T1, G184A (Homo sapiens, UniProt P18827); assay: alanine scan: flow cytometry on HEK-293T cells expressing the mutant clone, 4320 Fab 0.50 ug/mL, normalised to WT CD138; Range %WT Binding 17; Normalized 4320 vs. BB4 60.6
T1 construct: clone of the alanine scanning library on HEK-293T cells; m17 with one substitution; also called CD138 G184A
T1 sequence (CD138 (SDC1), full length, point mutant, looked up): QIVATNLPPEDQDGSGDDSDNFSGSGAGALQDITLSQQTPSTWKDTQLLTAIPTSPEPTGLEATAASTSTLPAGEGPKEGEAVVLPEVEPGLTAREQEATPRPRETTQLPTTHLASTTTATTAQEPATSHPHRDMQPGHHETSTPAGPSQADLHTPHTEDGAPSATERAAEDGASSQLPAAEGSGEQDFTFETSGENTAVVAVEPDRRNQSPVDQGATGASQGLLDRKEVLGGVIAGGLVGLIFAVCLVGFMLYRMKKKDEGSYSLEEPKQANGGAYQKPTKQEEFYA
Protocol: (§1) Serial dilutions of each MAb were tested for immunoreactivity against cells expressing target protein (WT) or vector alone. Validation of target expression and optimization of detection and binding of anti-CD138 antibodies both by flow cytometry was completed in replicate (N=4). The optimal screening concentration for each MAb was determined based on the raw signal values and signal-to-background calculations specifically optimized for each test article. Optimized parameters included the use of 10% goat serum as blocking reagent. Primary antibody staining was for 60 minutes at 25° C. Wash buffer include phosphate buffered saline (divalent metal ion free), pH 7.4. […] Secondary antibodies were diluted 1:400 and incubated for 30 minutes at 25° C.
(§2) Library screens of very-high-affinity mAbs can fail to yield critical residues for antibody binding due to deficiencies of such an assay to detect and differentiate critical vs. less critical binding based on affinity and quantification of cell binding. One common approach in the literature is the use of monovalent antibody derived fragments such as Fab usually weakens binding sufficiently to allow identification of critical residues for binding. […] Binding of each test Ab to each mutant clone in the alanine scanning library was determined, in duplicate, and likewise evaluated by flow cytometry.

L114A = target: T2, L114A (Homo sapiens, UniProt P18827); assay: alanine scan: flow cytometry on HEK-293T cells expressing the mutant clone, 4320 Fab 0.50 ug/mL, normalised to WT CD138; Range %WT Binding 15; Normalized 4320 vs. BB4 30.8
T2 construct: clone of the alanine scanning library on HEK-293T cells; m17 with one substitution; also called CD138 L114A
T2 sequence (CD138 (SDC1), full length, point mutant, looked up): T1 sequence (CD138 (SDC1), full length, point mutant, looked up) with L92A, A162G
Protocol: as §1, §2

Mean %WT Binding (G184A): 60.1 %WT
Mean %WT Binding (L114A): 36.2 %WT
B1: Fab fragment of mAb 4320 (Fab, V domains shown)
VH: QVQLVQSGAEVKKPGASVKVSCKASGYSFSSYYMHWVRQAPGQGLEWMGTIHPSDSTTNYNQKFQGRVTMTVDTSTRTAYMELSSLRSEDTAVYYCANFVYWGQGTTVTVSS
VL: DIVMTQTPLSLSVTPGQPASISCKSSKSLLYKDGKTYLNWFLQKPGQSPQLLIYVVSTRASGVPDRFSGSGSGTDFTLKISRVEAEDVGVYYCQQLVEYPYTFGQGTKLEIKR
modifications: N-terminal Q1 observed as pyroglutamic acid (PCA) in the 138-2-5 complex
notes: In the crystal structures heavy chain residues 1-213 were traced; also called Fab4320
